# According to article doi:10.1101/2024.03.20.585881 (bioRxiv, 2024):
# Columns and labels:
# 3xFLAG-eGFP-Axin1 = 3xFLAG-eGFP-Axin1 (UniProt O15169 1-862); assay: affinity purification with mass spectrometry
# 3xFLAG-mScarlet-APC = 3xFLAG-mScarlet-APC (human (endogenous in HEK293), UniProt P25054 1-2843); assay: affinity purification with mass spectrometry
# 3xFLAG-mScarlet-APC, sequence (P25054 whole entry): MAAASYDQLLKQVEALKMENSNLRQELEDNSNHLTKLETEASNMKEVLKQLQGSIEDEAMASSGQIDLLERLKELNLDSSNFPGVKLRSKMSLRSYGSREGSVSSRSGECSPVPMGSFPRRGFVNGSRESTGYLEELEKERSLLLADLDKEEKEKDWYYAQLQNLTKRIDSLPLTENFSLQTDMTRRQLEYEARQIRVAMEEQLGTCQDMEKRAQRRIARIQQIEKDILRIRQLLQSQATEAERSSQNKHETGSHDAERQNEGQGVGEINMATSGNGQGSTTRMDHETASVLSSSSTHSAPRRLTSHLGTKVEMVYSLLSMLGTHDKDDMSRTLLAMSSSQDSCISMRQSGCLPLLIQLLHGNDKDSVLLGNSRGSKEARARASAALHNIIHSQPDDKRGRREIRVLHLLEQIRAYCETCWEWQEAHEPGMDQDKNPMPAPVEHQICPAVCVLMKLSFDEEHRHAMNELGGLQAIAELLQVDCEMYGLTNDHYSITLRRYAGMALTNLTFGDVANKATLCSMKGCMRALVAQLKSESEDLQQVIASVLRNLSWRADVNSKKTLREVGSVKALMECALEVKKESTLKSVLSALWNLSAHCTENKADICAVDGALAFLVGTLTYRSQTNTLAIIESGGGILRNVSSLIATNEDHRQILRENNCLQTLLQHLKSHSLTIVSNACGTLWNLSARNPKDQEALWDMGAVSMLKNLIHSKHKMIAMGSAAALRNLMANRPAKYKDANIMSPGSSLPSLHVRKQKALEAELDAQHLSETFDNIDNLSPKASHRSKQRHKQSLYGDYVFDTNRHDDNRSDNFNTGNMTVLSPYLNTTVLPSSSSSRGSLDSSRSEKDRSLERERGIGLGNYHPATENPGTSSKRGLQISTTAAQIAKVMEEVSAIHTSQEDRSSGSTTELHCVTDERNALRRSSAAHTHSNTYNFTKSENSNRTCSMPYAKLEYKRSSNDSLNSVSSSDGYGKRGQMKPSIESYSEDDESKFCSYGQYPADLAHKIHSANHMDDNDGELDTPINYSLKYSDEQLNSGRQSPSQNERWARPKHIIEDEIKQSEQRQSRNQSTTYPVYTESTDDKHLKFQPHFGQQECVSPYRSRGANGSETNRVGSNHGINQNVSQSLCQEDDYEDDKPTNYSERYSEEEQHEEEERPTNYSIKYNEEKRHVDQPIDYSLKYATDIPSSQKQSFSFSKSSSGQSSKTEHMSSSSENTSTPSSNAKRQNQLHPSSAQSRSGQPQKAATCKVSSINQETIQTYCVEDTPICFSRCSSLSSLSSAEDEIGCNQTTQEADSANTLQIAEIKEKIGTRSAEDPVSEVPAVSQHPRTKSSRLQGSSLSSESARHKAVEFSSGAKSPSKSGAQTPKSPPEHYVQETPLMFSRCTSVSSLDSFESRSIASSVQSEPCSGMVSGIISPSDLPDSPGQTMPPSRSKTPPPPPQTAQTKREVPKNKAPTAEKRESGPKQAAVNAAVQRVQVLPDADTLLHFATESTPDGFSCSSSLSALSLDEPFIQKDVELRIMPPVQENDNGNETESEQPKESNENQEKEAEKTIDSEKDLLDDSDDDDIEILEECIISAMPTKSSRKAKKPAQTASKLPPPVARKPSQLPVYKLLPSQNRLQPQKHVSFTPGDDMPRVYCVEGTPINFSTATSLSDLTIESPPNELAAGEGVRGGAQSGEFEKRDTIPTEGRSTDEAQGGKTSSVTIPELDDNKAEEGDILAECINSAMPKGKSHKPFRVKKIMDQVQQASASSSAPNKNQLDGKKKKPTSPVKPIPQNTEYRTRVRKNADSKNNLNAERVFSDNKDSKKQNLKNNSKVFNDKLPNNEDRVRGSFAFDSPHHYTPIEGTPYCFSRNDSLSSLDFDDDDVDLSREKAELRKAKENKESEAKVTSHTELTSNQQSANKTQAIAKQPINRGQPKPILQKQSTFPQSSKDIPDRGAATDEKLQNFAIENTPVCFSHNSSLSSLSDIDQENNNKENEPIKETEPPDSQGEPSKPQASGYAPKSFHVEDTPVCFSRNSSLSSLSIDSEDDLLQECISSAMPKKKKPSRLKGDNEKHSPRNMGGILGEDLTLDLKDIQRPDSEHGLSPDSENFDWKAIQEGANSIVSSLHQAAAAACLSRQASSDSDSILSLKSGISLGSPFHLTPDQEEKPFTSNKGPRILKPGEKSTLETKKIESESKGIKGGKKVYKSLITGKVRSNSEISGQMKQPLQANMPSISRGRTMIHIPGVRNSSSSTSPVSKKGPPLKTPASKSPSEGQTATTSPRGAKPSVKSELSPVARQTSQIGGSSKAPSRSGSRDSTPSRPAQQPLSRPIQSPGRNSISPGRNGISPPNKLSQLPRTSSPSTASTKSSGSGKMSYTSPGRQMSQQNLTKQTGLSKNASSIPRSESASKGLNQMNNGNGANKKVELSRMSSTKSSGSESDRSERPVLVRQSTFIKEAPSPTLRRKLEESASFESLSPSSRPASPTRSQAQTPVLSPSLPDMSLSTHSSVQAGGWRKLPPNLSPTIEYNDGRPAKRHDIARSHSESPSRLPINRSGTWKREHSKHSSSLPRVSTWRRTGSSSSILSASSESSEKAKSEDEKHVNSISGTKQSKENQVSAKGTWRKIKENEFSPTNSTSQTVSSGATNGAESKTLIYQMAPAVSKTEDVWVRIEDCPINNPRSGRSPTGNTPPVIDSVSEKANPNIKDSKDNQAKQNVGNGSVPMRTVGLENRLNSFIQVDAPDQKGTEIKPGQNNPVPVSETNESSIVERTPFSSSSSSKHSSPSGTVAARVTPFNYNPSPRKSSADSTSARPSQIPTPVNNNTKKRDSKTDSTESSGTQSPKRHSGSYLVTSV
# 3xFLAG-eGFP-Axin1, sequence (O15169 whole entry): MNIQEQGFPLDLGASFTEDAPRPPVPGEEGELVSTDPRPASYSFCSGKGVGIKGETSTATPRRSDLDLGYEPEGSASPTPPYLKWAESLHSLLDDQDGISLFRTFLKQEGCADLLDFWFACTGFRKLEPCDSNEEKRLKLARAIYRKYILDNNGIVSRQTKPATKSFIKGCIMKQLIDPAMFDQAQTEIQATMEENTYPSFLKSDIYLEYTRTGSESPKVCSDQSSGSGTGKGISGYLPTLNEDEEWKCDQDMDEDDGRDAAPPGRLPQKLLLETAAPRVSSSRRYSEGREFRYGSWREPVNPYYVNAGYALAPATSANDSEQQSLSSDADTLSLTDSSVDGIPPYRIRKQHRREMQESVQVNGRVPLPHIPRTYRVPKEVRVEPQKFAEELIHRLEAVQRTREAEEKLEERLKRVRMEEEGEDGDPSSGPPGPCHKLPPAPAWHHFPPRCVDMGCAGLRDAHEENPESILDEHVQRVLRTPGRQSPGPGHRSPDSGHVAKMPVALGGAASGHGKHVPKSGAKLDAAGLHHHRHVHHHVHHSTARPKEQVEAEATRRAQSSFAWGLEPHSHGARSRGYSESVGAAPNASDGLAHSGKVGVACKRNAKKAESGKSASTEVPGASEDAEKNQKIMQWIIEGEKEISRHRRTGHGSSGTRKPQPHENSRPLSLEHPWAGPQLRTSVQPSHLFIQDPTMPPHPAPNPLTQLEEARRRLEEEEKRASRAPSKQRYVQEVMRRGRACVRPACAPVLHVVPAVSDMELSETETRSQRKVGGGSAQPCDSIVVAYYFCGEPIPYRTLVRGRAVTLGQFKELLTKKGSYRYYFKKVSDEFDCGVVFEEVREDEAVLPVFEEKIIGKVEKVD
fold decrease in binding after puromycin (3xFLAG-eGFP-Axin1),fold reduction of the interaction after puromycin (3xFLAG-mScarlet-APC),Binder
~10 fold,~4 fold,"β-catenin (natural protein, human (endogenous in HEK293 and HeLa), UniProt P35222 1-781, looked up) MATQADLMELDMAMEPDRKAAVSHWQQQSYLDSGIHSGATTTAPSLSGKGNPEEEDVDTSQVLYEWEQGFSQSFTQEQVADIDGQYAMTRAQRVRAAMFPETLDEGMQIPSTQFDAAHPTNVQRLAEPSQMLKHAVVNLINYQDDAELATRAIPELTKLLNDEDQVVVNKAAVMVHQLSKKEASRHAIMRSPQMVSAIVRTMQNTNDVETARCTAGTLHNLSHHREGLLAIFKSGGIPALVKMLGSPVDSVLFYAITTLHNLLLHQEGAKMAVRLAGGLQKMVALLNKTNVKFLAITTDCLQILAYGNQESKLIILASGGPQALVNIMRTYTYEKLLWTTSRVLKVLSVCSSNKPAIVEAGGMQALGLHLTDPSQRLVQNCLWTLRNLSDAATKQEGMEGLLGTLVQLLGSDDINVVTCAAGILSNLTCNNYKNKMMVCQVGGIEALVRTVLRAGDREDITEPAICALRHLTSRHQEAEMAQNAVRLHYGLPVVVKLLHPPSHWPLIKATVGLIRNLALCPANHAPLREQGAIPRLVQLLVRAHQDTQRRTSMGGTQQQFVEGVRMEEIVEGCTGALHILARDVHNRIVIRGLNTIPLFVQLLYSPIENIQRVAAGVLCELAQDKEAAEAIEAEGATAPLTELLHSRNEGVATYAAAVLFRMSEDKPQDYKKRLSVELTSSLFRTEPMAWNETADLGLDIGAQGEPLGYRQDDPSYRSFHSGGYGQDALGMDPMMEHEMGGHHPGADYPVDGLPDLGHAQDLMDGLPPGDSNQLAWFDTDL"
~10 fold,–,"α-catenin (natural protein, human (endogenous in HEK293 and HeLa), UniProt P35221 1-906, looked up) MTAVHAGNINFKWDPKSLEIRTLAVERLLEPLVTQVTTLVNTNSKGPSNKKRGRSKKAHVLAASVEQATENFLEKGDKIAKESQFLKEELVAAVEDVRKQGDLMKAAAGEFADDPCSSVKRGNMVRAARALLSAVTRLLILADMADVYKLLVQLKVVEDGILKLRNAGNEQDLGIQYKALKPEVDKLNIMAAKRQQELKDVGHRDQMAAARGILQKNVPILYTASQACLQHPDVAAYKANRDLIYKQLQQAVTGISNAAQATASDDASQHQGGGGGELAYALNNFDKQIIVDPLSFSEERFRPSLEERLESIISGAALMADSSCTRDDRRERIVAECNAVRQALQDLLSEYMGNAGRKERSDALNSAIDKMTKKTRDLRRQLRKAVMDHVSDSFLETNVPLLVLIEAAKNGNEKEVKEYAQVFREHANKLIEVANLACSISNNEEGVKLVRMSASQLEALCPQVINAALALAAKPQSKLAQENMDLFKEQWEKQVRVLTDAVDDITSIDDFLAVSENHILEDVNKCVIALQEKDVDGLDRTAGAIRGRAARVIHVVTSEMDNYEPGVYTEKVLEATKLLSNTVMPRFTEQVEAAVEALSSDPAQPMDENEFIDASRLVYDGIRDIRKAVLMIRTPEELDDSDFETEDFDVRSRTSVQTEDDQLIAGQSARAIMAQLPQEQKAKIAEQVASFQEEKSKLDAEVSKWDDSGNDIIVLAKQMCMIMMEMTDFTRGKGPLKNTSDVISAAKKIAEAGSRMDKLGRTIADHCPDSACKQDLLAYLQRIALYCHQLNICSKVKAEVQNLGGELVVSGVDSAMSLIQAAKNLMNAVVQTVKASYVASTKYQKSQGMASLNLPAVSWKMKAPEKKPLVKREKQDETQTKIKRASQKKHVNPVQALSEFKAMDSI"
